Read-outs that look alike come from different tables or passages of the source.
What was measured:
SEC-SAXS [1] = target: the molecule itself; assay: SEC-SAXS
SEC-SAXS [2] = target: the molecule itself; assay: SEC-SAXS; remark: listed apart in the source
SEC = target: the molecule itself; assay: SEC

B1: MBP-2rNT, N-terminal domain of rat Arc (residues 24-137) with the poly-Ala mutation, His6-MBP fusion (domain or fragment)
chain: KPNVILQIGKCRAEMLEHVRRTHRHLLTEVSKQVERELKGLHRSVGKLENNLDGYVPTGDSQRWKKSIKACLCRCQETIANLERWVKREAAAAAAAFYRLERWADRLESMGGKY
SEC-SAXS [1]
  stoichiometry N: 2

B2: FLrArc-7A, full-length rat Arc with a poly-Ala mutation of residues 113-119 (natural protein)
chain: MELDHMTTGGLHAYPAPRGGPAAKPNVILQIGKCRAEMLEHVRRTHRHLLTEVSKQVERELKGLHRSVGKLENNLDGYVPTGDSQRWKKSIKACLCRCQETIANLERWVKREAAAAAAAFYRLERWADRLESMGGKYPVGSEPARHTVSVGVGGPEPYCQEADGYDYTVSPYAITPPPAAGELPEQESVGAQQYQSWVPGEDGQPSPGVDTQIFEDPREFLSHLEEYLRQVGGSEEYWLSQIQNHMNGPAKKWWEFKQGSVKNWVEFKKEFLQYSEGTLSREAIQRELDLPQKQGEPLDQFLWRKRDLYQTLYVDAEEEEIIQYVVGTLQPKFKRFLRHPLPKTLEQLIQRGMEVQDGLEQAAEPSVTPLPTEDETEALTPALTSESVASDRTQPE
SEC-SAXS [2]
  stoichiometry N: 2

B3: FLhArc, full-length human Arc (capsid / high-molecular-weight forms) (natural protein)
chain: MELDHRTSGGLHAYPGPRGGQVAKPNVILQIGKCRAEMLEHVRRTHRHLLAEVSKQVERELKGLHRSVGKLESNLDGYVPTSDSQRWKKSIKACLCRCQETIANLERWVKREMHVWREVFYRLERWADRLESTGGKYPVGSESARHTVSVGVGGPESYCHEADGYDYTVSPYAITPPPAAGELPGQEPAEAQQYQPWVPGEDGQPSPGVDTQIFEDPREFLSHLEEYLRQVGGSEEYWLSQIQNHMNGPAKKWWEFKQGSVKNWVEFKKEFLQYSEGTLSREAIQRELDLPQKQGEPLDQFLWRKRDLYQTLYVDADEEEIIQYVVGTLQPKLKRFLRHPLPKTLEQLIQRGMEVQDDLEQAAEPAGPHLPVEDEAETLTPAPNSESVASDRTQPE
SEC
  binding result: binds
